In publication PMC3985891 (Biochemistry, 2014):

Target: the molecule itself
Experiment: SEC-MALS

B1: MVP-s (codon-optimized synthetic MVP, M. jannaschii voltage-gated protein), N-terminal His tag, from pET15b (natural protein, Methanococcus jannaschii, UniProt Q57603 1-209, looked up)
chain: MNLKDRRLKKIMEVLSLIFTFEIVASFILSTYNPPYQDLLIKLDYISIMFFTFEFIYNFYYVEDKAKFFKDIYNIVDAIVVIAFLLYSLQVFYSKAFLGLRVINLLRILVLLRIIKLRKLEENQALINFLTLLTICFIASCLIWIVESGVNPAINNFFDAFYFTTISITTVGYGDITPKTDAGKLIIIFSVLFFISGLITSLQKALKGD
  stoichiometry N: 4
